In patent publication US20150119340A1, “FUSION PEPTIDE AND USE THEREOF FOR CELL MEMBRANE PENETRATING” (Samsung Electronics Co., Ltd., priority 2013, published 2015):

System: MDA-MB-231 cells
Experiment: Anticancer effect: cell viability (proliferation assay kit)
Assay type: cell-based
Settings: various concentrations, 72 hours after the conjugate treatment, FIG. 11
Method: MDA-MB-231 cells were incubated at the amount of about 5,000-8,000 cells/well in 96 well plate for 24 hours, and then, treated with each of the obtained conjugates MTS-BAA-p16M7 and Tat-p16M7 at various concentrations (refer to FIG. 11). 24 hours or 72 hours after, the viability of the cells was measured by reading the fluorescent intensity of viable cells using titer® proliferation assay kit (Promega) according to manufacturer's manual. The results were normalized based on the results from a control (non-treated) group, and plotted (the value of the control group: “1”). The experiment was conducted in triplicate, and the error was treated using a standard deviation.
The obtained results (results obtained at 72 hours after the conjugate treatment) are illustrated in FIG. 11.

B1: Tat-p16M7: Comparison conjugate of TAT peptide and p16M7 (SEQ ID NO: 20-SEQ ID NO: 16) (protein)
chain: RKKRRQRRRMEPAAGSSMEPSADKLATAAARGRVEEVRALLEAGADPNAPNSYGRRPIQVMMMGSARVAELLLKHGAEPNSADPATSTRPVHDAAREGFLDTLVVLHRAGARLDARDAWGRTPVDLAEELGHRDVARYLRAAAGGTRGSNHARIDAAEGPSDIPD
modifications: Synthetic (TAT peptide); Synthetic (p16 variant (p16M7))
- inhibitory effect on cancer cell proliferation (relative viability): nearly no inhibitory effect on cancer cell proliferation
